This is an account of results in paper PMC10713658.

The target of this experiment is ABI2 (UniProt Q9NYB9). The experiment in a line: Flag co-IP, ABI2 Western blot. The conditions noted are these: reference: wild type, OA-treated; sites S668,T670,S671. For orientation: In western blotting, separated proteins are transferred to a membrane and probed.

Regarding “GRAF1 (from UniProt Q9UNA1) AAA (S668A/T670A/S671A), OA-treated”, the “binding against the reference” value is listed as “weaker”.
